Experimental data: US20120301930A1 (YEDA RESEARCH AND DEVELOPMENT, published 2012)

T1: f-5A chimera (catalytic module of T. fusca family-5 endoglucanase Cel5A fused to a dockerin from Ruminococcus …)
T1 construct: Recombinant chimera expressed in E. coli; all enzyme constructs were designed to contain a His-tag; also called variant Cel5A
T1 chain: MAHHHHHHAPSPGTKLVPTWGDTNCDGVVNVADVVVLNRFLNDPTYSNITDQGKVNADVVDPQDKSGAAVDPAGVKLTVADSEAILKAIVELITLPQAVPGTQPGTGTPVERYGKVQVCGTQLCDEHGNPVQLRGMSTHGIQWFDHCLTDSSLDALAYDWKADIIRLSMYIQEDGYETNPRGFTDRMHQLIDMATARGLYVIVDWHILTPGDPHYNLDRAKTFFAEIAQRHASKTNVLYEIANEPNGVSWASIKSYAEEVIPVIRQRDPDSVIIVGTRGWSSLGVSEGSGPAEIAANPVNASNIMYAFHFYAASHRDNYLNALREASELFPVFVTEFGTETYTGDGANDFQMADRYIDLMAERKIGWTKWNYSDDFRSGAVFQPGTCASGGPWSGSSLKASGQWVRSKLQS

T2: b-48A chimera (catalytic module of T. fusca exoglucanase Cel48A ligated with a dockerin from the Bacteroides …)
T2 construct: Recombinant chimera; all enzyme constructs were designed to contain a His-tag; also called variant Cel48A
T2 chain: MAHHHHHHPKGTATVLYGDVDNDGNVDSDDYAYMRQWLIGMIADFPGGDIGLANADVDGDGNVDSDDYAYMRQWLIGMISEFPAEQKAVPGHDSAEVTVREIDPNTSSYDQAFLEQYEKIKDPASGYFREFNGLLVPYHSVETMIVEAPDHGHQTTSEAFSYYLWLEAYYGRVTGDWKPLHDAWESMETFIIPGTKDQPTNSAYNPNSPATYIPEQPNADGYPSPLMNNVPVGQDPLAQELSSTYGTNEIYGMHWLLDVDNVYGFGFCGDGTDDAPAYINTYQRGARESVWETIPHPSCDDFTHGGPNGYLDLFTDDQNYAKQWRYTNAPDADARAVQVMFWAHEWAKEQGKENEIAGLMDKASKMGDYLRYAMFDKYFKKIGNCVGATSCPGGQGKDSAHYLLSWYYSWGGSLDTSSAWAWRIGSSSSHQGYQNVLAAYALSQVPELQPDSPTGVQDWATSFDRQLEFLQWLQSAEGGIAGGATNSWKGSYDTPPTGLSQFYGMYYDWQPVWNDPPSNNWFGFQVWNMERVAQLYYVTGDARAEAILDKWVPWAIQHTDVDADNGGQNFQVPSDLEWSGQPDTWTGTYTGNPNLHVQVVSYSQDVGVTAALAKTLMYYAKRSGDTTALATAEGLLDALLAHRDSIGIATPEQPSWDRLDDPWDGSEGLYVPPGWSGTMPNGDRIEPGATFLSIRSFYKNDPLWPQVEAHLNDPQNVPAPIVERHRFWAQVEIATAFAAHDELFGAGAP

T3: Scaf-T single-cohesin scaffoldin (CBM with C. thermocellum cohesin) (Acetivibrio thermocellus (strain ATCC …, UniProt Q06851 361-706))
T3 construct: Individual single-cohesin scaffoldin; also called pScaf.T
T3 sequence: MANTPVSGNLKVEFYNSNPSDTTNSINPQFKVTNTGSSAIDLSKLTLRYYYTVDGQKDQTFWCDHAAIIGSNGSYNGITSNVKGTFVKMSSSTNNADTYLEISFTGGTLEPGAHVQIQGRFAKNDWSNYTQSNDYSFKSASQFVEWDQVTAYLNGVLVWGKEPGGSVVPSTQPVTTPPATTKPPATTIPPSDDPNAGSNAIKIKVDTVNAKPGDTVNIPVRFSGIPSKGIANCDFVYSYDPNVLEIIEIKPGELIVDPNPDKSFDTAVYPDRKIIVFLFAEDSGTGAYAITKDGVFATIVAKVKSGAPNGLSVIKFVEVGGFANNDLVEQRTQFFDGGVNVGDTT

B1: 10B-t chimera (catalytic module of T. fusca Xyn10B attached directly to dockerin S of Cel48S from Clostridium thermocellum) (enzyme)
chain: MASHHHHHHGPVHDHHPAPHSNAKSERLRWAAPDGFYIGSAVAGGGHHLEQDYPDPFTHDGKYRSILAQQFSSVSPENQMKWEYIHPEPDRYDFAMADKIVDFAERNDQKVRGHTLLWHSQNPEWLEEGDYSPEELREILRDHITTVVGRYAGRIHQWDVANEIFDEQGNLRTQENIWIRELGPGIIADAFRWAHEADPNAELFFNDYNVEGINPKSDAYYELIQELLDDGVPVHGFSVQGHLSTRYGFPGDLEQNLRRFDELGLATAITELDVRMDLPASGKPTPKQLEQQADYYQQALEACLAVEGCDSFTIWGFTDKYSWVPVFFPDEGAATIMTEKYERKPAFFALQQTLREARCADSPKPGPGKPKPGKGPKHDHCTSTYKVPGTPSTKLYGDVNDDGKVNSTDAVALKRYVLRSGISINTDNADLNEDGRVNSTDLGILKRYILKEIDTLPYKN
notes: Recombinant chimera expressed in E. coli, purified on a Ni column (His-tag); also called variant Xyn10B

Experiments:
[1] = molecular target: T4, 11A-XBM-a chimera (catalytic module of T. fusca Xyn11A together with its adjacent XBM attached to dockerin B …); assay: affinity-based ELISA; complex formation also by non-denaturing PAGE
T4 construct: Recombinant chimera expressed in E. coli, purified on a Ni column (His-tag); also called variant Xyn11A

[2] = molecular target: T5, 11A-a chimera (catalytic module of T. fusca Xyn11A attached directly to dockerin B from Acetivibrio …); assay: as above
T5 construct: Recombinant chimera expressed in E. coli, purified on a Ni column (His-tag)

[3] = molecular target: B1; assay: as above
[4] = molecular target: T1, f-5A chimera (catalytic module of T. …); assay: as above
[5] = molecular target: T2, b-48A chimera (catalytic module of T. …); assay: as above
[6] = molecular target: T3, Scaf-T single-cohesin scaffoldin (CBM …); assay: affinity-based ELISA
[7] = molecular target: T4, 11A-XBM-a chimera (catalytic module of …); assay: affinity-based ELISA
[8] = molecular target: T5, 11A-a chimera (catalytic module of T. …); assay: affinity-based ELISA
[9] = molecular target: T2, b-48A chimera (catalytic module of T. …); assay: affinity-based ELISA

| Binder | binding result [1] | binding result [2] | binding result [3] | binding result [4] | further results |
| --- | --- | --- | --- | --- | --- |
| Scaf-ATF chimeric scaffoldin (cohesins A, T and F with the cellulose-binding CBM) (other) MDLQVDIGSTSGKAGSVVSVPITFTNVPKSGIYALSFRTNFDPQKVTVASIDAGSLIENASDFTTYYNNENGFASMTFEAPVDRARIIDSDGVFATINFKVSDSAKVGELYNITTNSAYTSFYYSGTDEIKNVVYNDGKIEVIASVPTNTPTNTPANTPVSGNLKVEFYNSNPSDTTNSINPQFKVTNTGSSAIDLSKLTLRYYYTVDGQKDQTFWCDHAAIIGSNGSYNGITSNVKGTFVKMSSSTNNADTYLEISFTGGTLEPGAHVQIQGRFAKNDWSNYTQSNDYSFKSASQFVEWDQVTAYLNGVLVWGKEPGGSVVPSTQPVTTPPATTKPPATTIPPSDDPNAIKIKVDTVNAKPGDTVNIPVRFSGIPSKGIANCDFVYSYDPNVLEIIEIKPGELIVDPNPDKSFDTAVYPDRKIIVFLFAEDSGTGAYAITKDGVFATIVAKVKSGAPNGLSVIKFVEVGGFANNDLVEQRTQFFDGGVNVGDIGSAGGLSAVQPNVSLGEVLDVSANRTAADGTVEWLIPTVTAAPGQTVTMPVVVKSSSLAVAGAQFKIQAATGVSYSSKTDGDAYGSGIVYNNSKYAFGQGAGRGIVAADDSVVLTLAYTVPADCAEGTYDVKWSDAFVSDTDGQNITSKVTLTDGAIIVHHHHHH | binds | binds | binds | binds | – |
| Scaf-BF chimeric scaffoldin (cohesin from B. cellulosolvens ScaB, CBM3a from C. thermocellum, cohesin 1 from R. flavefaciens scaffoldin B) (other) MAGKSSPGNKMKIQIGDVKANQGDTVIVPITFNEVPVMGVNNCNFTLAYDKNIMEFISADAGDIVTLPMANYSYNMPSDGLVKFLYNDQAQGAMSIKEDGTFANVKFKIKQSAAFGKYSVGIKAIGSISALSNSKLIPIESIFKDGSITVTKVPTNTPTNTPANTPVSGNLKVEFYNSNPSDTTNSINPQFKVTNTGSSAIDLSKLTLRYYYTVDGQKDQTFWCDHAAIIGSNGSYNGITSNVKGTFVKMSSSTNNADTYLEISFTGGTLEPGAHVQIQGRFAKNDWSNYTQSNDYSFKSASQFVEWDQVTAYLNGVLVWGKEPGGSVVPSTQPVTTPPATTKPPATTIPPSEDPAGGLSAVQPNVSLGEVLDVSANRTAADGTVEWLIPTVTAAPGQTVTMPVVVKSSSLAVAGAQFKIQAATGVSYSSKTDGDAYGSGIVYNNSKYAFGQGAGRGIVAADDSVVLTLAYTVPADCAEGTYDVKWSDAFVSDTDGQNITSKVTLTDGAIIVHHHHHH | – | – | – | binds | binding result [5]: binds |
| B1 | – | – | – | – | binding result [6]: binds |
| Scaf-A single-cohesin scaffoldin (CBM with A. cellulolyticus cohesin) (other, Individual single-cohesin scaffoldin; also called pScaf-A) MANTPVSGNLKVEFYNSNPSDTTNSINPQFKVTNTGSSAIDLSKLTLRYYYTVDGQKDQTFWCDHAAIIGSNGSYNGITSNVKGTFVKMSSSTNNADTYLEISFTGGTLEPGAHVQIQGRFAKNDWSNYTQSNDYSFKSASQFVEWDQVTAYLNGVLVWGKEPGGSVVPSTQPVTTPPATTKPPATTIPPSDDPNAGSDLQVDIGSTSGKAGSVVSVPITFTNVPKSGIYALSFRTNFDPQKVTVASIDAGSLIENASDFTTYYNNENGFASMTFEAPVDRARIIDSDGVFATINFKVSDSAKVGELYNITTNSAYTSFYYSGTDEIKNVVYNDGKIEVIAS | – | – | – | – | binding result [7]: binds; binding result [8]: binds |
| Scaf-B single-cohesin scaffoldin (CBM with B. cellulosolvens cohesin) (other, Individual single-cohesin scaffoldin) MANTPVSGNLKVEFYNSNPSDTTNSINPQFKVTNTGSSAIDLSKLTLRYYYTVDGQKDQTFWCDHAAIIGSNGSYNGITSNVKGTFVKMSSSTNNADTYLEISFTGGTLEPGAHVQIQGRFAKNDWSNYTQSNDYSFKSASQFVEWDQVTAYLNGVLVWGKEPGGSVVPSTQPVTTPPATTKPPATTIPPSDDPNAGSGKSSPGNKMKIQIGDVKANQGDTVIVPITFNEVPVMGVNNCNFTLAYDKNIMEFISADAGDIVTLPMANYSYNMPSDGLVKFLYNDQAQGAMSIKEDGTFANVKFKIKQSAAFGKYSVGIKAIGSISALSNSKLIPIESIFKDGSITVTN | – | – | – | – | binding result [9]: binds |
| Scaf AT chimeric scaffoldin (A. cellulolyticus cohesin 3, cellulose-binding CBM, cohesin 3 from the C. thermocellum CipA scaffoldin) (other) MDLQVDIGSTSGKAGSVVSVPITFTNVPKSGIYALSFRTNFDPQKVTVASIDAGSLIENASDFTTYYNNENGFASMTFEAPVDRARIIDSDGVFATINFKVSDSAKVGELYNITTNSAYTSFYYSGTDEIKNVVYNDGKIEVIASVPTNTPTNTPANTPVSGNLKVEFYNSNPSDTTNSINPQFKVTNTGSSAIDLSKLTLRYYYTVDGQKDQTFWCDHAAIIGSNGSYNGITSNVKGTFVKMSSSTNNADTYLEISFTGGTLEPGAHVQIQGRFAKNDWSNYTQSNDYSFKSASQFVEWDQVTAYLNGVLVWGKEPGGSVVPSTQPVTTPPATTKPPATTIPPSDDPNAIKIKVDTVNAKPGDTVNIPVRFSGIPSKGIANCDFVYSYDPNVLEIIEIKPGELIVDPNPDKSFDTAVYPDRKIIVFLFAEDSGTGAYAITKDGVFATIVAKVKSGAPNGLSVIKFVEVGGFANNDLVEQRTQFFDGGVNVGDIHHHHHH | binds | binds | binds | – | – |
